In US20130177572A1 (X BODY, published 2013):
Substitutions are numbered along the chain they refer to.

B1: A8 VL (other)
VL domain: QAGLTQSPDFQSVTPKERVTITCRASRYIGSNLHWYQQKPDQPPKLLIKLASQSFSGVPPRFSGGGSGTDFTLTINGLEAEDAATYYCHQTGSFPYTFGQGTKLTVL
notes: unpaired VL domain; also called unpaired A8 VL domain
B2: B11 VL (other)
VL domain: QSVLTQSPGTLSLSPGERATLSCRASQSVSSNYLAWYQQKPGQAPRLLIYGASSRASGIPVRVSGSGSGTDFTLTISRLEPEDFAVYYCQQYGSSPWTFGQGTKLTVL
notes: unpaired VL domain; also called unpaired B11 VL domain
B3: H8 VL (other)
VL domain: B2 VL domain with Q38L, Y50S, S57T, V61D, V63F, G93A, S94G, W97F, Q101P
notes: unpaired VL domain; also called unpaired H8 VL domain
B4: H10 VL (other)
VL domain: QSVLTQSPDFQSVSPKDKVTITCRASQSIGSSLHWYQQKPGQSPKLLIKYSSQSFSGVPSRFSGSASGTEFTLTITGLEAEDAATYYCHQSSSLPHTFGQGTKVTVL
notes: unpaired VL domain; also called unpaired H10 VL domain
B5: G8 VL (other)
VL domain: QSVLTQSPGTLSLSPGDRATLSCRASQSLSGTYLAWYQQKPGQAPRLLIYDASNRAAGIPKRFSGSGSRTDFTLTISRVDPADSAVYYCQQYGSALLTFGGGTKVTVL
notes: unpaired VL domain; also called unpaired G8 VL domain
B6: C7 VL (other)
VL domain: DIVMTQTPLSLSVTPGQPASISCKSSQSLLHSDGKTHLFWYLQRPGQSPQLLIYEVSGRFSGVSERFSGSGSGTDFTLKISRVEAEDVGVYYCMQGLHIPHTFGQGTKVEIK
notes: unpaired VL domain; also called unpaired C7 VL domain
B7: H11 VL (other)
VL domain: QSVLTQSPDFQSVTPKEKVTITCRASQSIGSSLHWYQQKPDQSPKLLITFASQSFSGVPSRFSGSGSGTDFTLTINSLEAEDAATYYCHQSRNLPFTFGPGTKLTVL
notes: unpaired VL domain; also called unpaired H11 VL domain
B8: G11 VL (other)
VL domain: EIVLTQSPGTLSLSPGEGATLSCRASQSVSSRNLAWYQQKPGQAPRLLIYGGSIRASGTSTRFSGSGSGTDFTLTINRLEPEDFAVYYCQQYGDSVFTFGPGTKVDIK
notes: unpaired VL domain; also called unpaired G11 VL domain
B9: B6 (scFv, V domains shown)
VH: QVQLVQSGAEVKKPGSSVRVSCKASGGTFSRHAISWVRQAPGQGLEWIGGILPILKTPNYAQRFQGRVTINADESTSTVYMEMSSLRSEDTAVYYCATHGGDRSYWGQGTLVTVSS
VL: EIVLTQSPGTLSLSPGERATLSCRASQSFGSNYLAWYQHKPGQAPRLLIFAASNRATGIPDRFTGSASGTDFTLTINRVEPEDLAVYYCQQYGSFPYSFGQGTKLEIK
notes: also called XB2202/B6 scFv
B10: F3 (scFv, V domains shown)
VH: B9 VH
VL: QSVLTQPPSVSVAPGKTARITCGGNNIGSKSVHWYQQKPGQAPVLVIYYDSDRPSGIPERFSGSNSGNTATLTISRVEAGDEADYYCQVWDSSSDHWVFGGGTKLTVL
notes: also called XB2202/F3 scFv
B11: G5 (scFv, V domains shown)
VH: B9 VH
VL: DIQMTQSPSSLSASVGDRVTITCRASQDISSSLAWYQQKPGKAPKPLIYDASTLQTGVPSRFSGRASGTDFTLTIDSLQPEDFATYCCQQFNSYPLSFGGGTKVELKR
notes: also called XB2202/G5 scFv
B12: D1 (scFv, V domains shown)
VH: B9 VH
VL: DIVMTQTPLSLSVTPGQPAAISCKSSQSLVHRDGKTYLYWYLQKPGHSPQLLVYEASSRFSGVPDRISGSASGTQFTLNISRVEAEDVGLYYCMQSRNLPKTFGQGTKVEIK
notes: also called XB2202/D1 scFv

Molecular target: T1, human PDGFRβ (human, UniProt P09619 33-530, limits assumed)
T1 construct: also called hPDGFRβ; recombinant human PDGFRβ
T1 sequence (P09619 33-530 limits assumed): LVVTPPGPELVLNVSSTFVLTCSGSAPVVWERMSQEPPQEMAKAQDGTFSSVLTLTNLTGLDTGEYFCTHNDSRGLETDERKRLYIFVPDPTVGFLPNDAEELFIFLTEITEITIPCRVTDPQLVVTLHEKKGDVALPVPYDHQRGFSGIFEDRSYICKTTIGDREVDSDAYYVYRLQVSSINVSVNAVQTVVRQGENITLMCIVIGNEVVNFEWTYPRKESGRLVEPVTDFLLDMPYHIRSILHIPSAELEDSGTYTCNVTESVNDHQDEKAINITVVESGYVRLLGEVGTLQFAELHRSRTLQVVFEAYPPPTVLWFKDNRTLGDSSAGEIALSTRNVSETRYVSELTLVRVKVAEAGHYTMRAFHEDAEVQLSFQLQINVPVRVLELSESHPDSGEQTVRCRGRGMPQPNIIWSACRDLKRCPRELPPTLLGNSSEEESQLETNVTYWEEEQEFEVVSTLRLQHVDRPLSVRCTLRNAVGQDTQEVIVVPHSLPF
Assay: ELISA of unpaired VL domains: plate coated with human PDGFRβ or human Fc, OD 450 nm
Protocol: A PDGFRβ binding ELISA assay was performed to assess the binding of the scFv to immobilized PDGFRβ and to determine the EC50. Specifically, 2 ug/mL of human PDGFRβ and human Fc or IgG in PBS was immobilized on Maxisorp plates at 4° C. overnight. The plate was then washed and blocked with superblock. […] 100 ul of the diluted scFv lysate was loaded into each well of Maxisorp plates and incubated for 1 hour at room temperature. scFv that bound to immobilized PDGFRβ was detected by anti-flag antibody-HRP at 1:5000 dilution and a TMB substrate. The plate was read on a Molecular Device plate reader with end point assay at OD 450 nm.

| Binder | binding result |
| --- | --- |
| B1 | no binding (tested: no concentration on the sheet) |
| B2 | no binding (tested: no concentration on the sheet) |
| B3 | no binding (tested: no concentration on the sheet) |
| B4 | no binding (tested: no concentration on the sheet) |
| B5 | no binding (tested: no concentration on the sheet) |
| B6 | no binding (tested: no concentration on the sheet) |
| B7 | no binding (tested: no concentration on the sheet) |
| B8 | no binding (tested: no concentration on the sheet) |

Molecular target: T1, human PDGFRβ
Assay: ELISA: plate coated with 2 ug/mL human PDGFRβ or human IgG, in vitro translated crude scFv lysate diluted 1:3, anti-flag-HRP, OD450
Protocol: A PDGFRβ binding ELISA assay was performed to assess the binding of the scFv to immobilized PDGFRβ and to determine the EC50. Specifically, 2 ug/mL of human PDGFRβ and human Fc or IgG in PBS was immobilized on Maxisorp plates at 4° C. overnight. The plate was then washed and blocked with superblock. In vitro translated crude scFv lysate was diluted 1:3 in 1×PBST. 100 ul of the diluted scFv lysate was loaded into each well of Maxisorp plates and incubated for 1 hour at room temperature. scFv that bound to immobilized PDGFRβ was detected by anti-flag antibody-HRP at 1:5000 dilution and a TMB substrate. The plate was read on a Molecular Device plate reader with end point assay at OD 450 nm.

| binding result | Binder |
| --- | --- |
| binds | B9 |
| binds | B10 |
| binds | B11 |
| binds | B12 |
